# Results: article PMC4794606 (Molecules and Cells, 2016)
# How the values were obtained:
# [1] = target: full length human extracellular superoxide dismutase (residues 1-240), (His)6-FLAG-PreScission site fusion (human) (UniProt P08294); assay: SEC
# SEC = target: the molecule itself; assay: SEC
stoichiometry N [1],Molecule,stoichiometry N (SEC)
8,"full length human extracellular superoxide dismutase (residues 1-240), (His)6-FLAG-PreScission site fusion (from UniProt P08294 19-240) (enzyme)",–
–,"truncated/mature human extracellular superoxide dismutase (residues 19-240), (His)6-FLAG-PreScission site fusion (enzyme, UniProt P08294 19-240, looked up, N-glycosylated at Asn107) WTGEDSAEPNSDSAEWIRDMYAKVTEIWQEVMQRRDDDGALHAACQVQPSATLDAAQPRVTGVVLFRQLAPRAKLDAFFALEGFPTEPNSSSRAIHVHQFGDLSQGCESTGPHYNPLAVPHPQHPGDFGNFAVRDGSLWRYRAGLAASLAGPHSIVGRAVVVHAGEDDLGRGGNQASVENGNAGRRLACCVVGVCGPGLWERQAREHSERKKRRRESECKAA",8
